Measured values taken from the supplement of paper PMC11136658.

System: peptide library, one residue held at a place counted from the Y acceptor
Test: relative phosphorylation of the sub-library (ratio to the mean residue at this position); higher = residue favoured
Outline: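 Purified recombinant kinases were given 50 μM ATP with γ-32P-ATP and biotinylated Tyr-centred peptide library mixtures for 90 min in 384-well plates. Peptides bound to streptavidin membranes were rinsed and quantified by phosphorimaging, and intensities were normalized per position by the sum of the 18 randomized residues (16 with the Ser/Thr-free library) and multiplied by that number. The reported values are phosphorylation relative to the mean randomized residue.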

RET, construct: aa658-end, human, sequence (P07949 658-1114, looked up): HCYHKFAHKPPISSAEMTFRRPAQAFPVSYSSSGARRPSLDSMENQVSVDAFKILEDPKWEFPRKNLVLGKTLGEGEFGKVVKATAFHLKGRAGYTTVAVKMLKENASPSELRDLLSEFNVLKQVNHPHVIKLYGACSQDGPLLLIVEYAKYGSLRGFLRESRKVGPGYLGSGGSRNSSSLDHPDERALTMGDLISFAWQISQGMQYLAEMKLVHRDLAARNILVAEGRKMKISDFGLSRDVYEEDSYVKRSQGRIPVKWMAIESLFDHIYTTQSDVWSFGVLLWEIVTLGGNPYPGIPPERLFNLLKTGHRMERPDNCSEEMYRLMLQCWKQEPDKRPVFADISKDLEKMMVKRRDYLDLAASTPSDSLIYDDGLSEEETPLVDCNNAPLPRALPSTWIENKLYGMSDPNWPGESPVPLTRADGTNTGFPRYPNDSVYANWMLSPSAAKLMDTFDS

RET, construct: aa658-end, human (from UniProt P07949)
relative phosphorylation
Settings	at +1	at +2	at +3	at +4	at +5	at -1	at -2	at -3	at -4	at -5
A fixed	0.957	0.877	0.845	0.859	0.923	0.865	0.967	0.857	1.08	1.05
D fixed	0.306	0.726	0.705	0.87	0.823	1.29	0.865	1.04	1.02	0.925
E fixed	0.415	0.976	0.636	0.831	0.783	1.2	0.885	1.43	1.1	0.86
F fixed	1.49	1.1	1.12	1.14	0.844	1.02	0.624	0.934	0.881	0.91
G fixed	0.541	0.643	0.88	1.05	1.44	0.5	1.34	1.18	1.27	1.23
H fixed	1.37	0.942	1.17	1.1	1.14	1.4	1.04	1.11	1	1.04
I fixed	1.59	0.802	1.28	0.73	0.765	1.46	0.674	0.606	0.749	0.786
K fixed	0.629	0.939	0.582	1.12	1.17	0.656	1.3	1.11	1.26	1.33
L fixed	1.41	1.07	1.09	0.83	0.76	1.12	0.768	0.748	0.888	0.872
M fixed	1.29	0.996	1.2	1.01	0.972	0.76	0.712	0.769	0.931	0.875
N fixed	0.513	1.21	0.865	1.08	1.09	1.29	1.2	1.14	0.859	1.05
P fixed	0.494	0.965	1.24	1.17	1.54	0.896	1.19	1.15	1.23	1.1
Q fixed	1.06	1.11	1.01	1.22	1.05	1	1.26	0.964	1.16	1.05
R fixed	1.02	1.37	0.818	1.34	1.29	0.672	1.52	1.3	1.31	1.42
S fixed	0.889	0.97	0.884	0.888	1	0.695	1.24	1.09	0.89	0.95
T fixed	0.943	1.01	0.962	0.874	0.952	0.984	1.04	1.04	0.757	0.892
V fixed	1.42	0.924	1.15	0.775	0.635	1.12	0.708	0.646	0.735	0.773
W fixed	1.66	1.37	1.56	1.11	0.819	1.07	0.668	0.879	0.883	0.882
pThr fixed	0.469	1.04	0.392	0.595	0.607	0.878	0.723	1.02	0.966	0.876
pTyr fixed	1.17	1.45	0.459	0.586	0.622	1.46	0.933	1.85	1.23	1.15
